This series deals with T1, DdaA (Ab) (Acinetobacter baumannii ATCC 17978, UniProt V5VBS3 1-335).
T1 sequence: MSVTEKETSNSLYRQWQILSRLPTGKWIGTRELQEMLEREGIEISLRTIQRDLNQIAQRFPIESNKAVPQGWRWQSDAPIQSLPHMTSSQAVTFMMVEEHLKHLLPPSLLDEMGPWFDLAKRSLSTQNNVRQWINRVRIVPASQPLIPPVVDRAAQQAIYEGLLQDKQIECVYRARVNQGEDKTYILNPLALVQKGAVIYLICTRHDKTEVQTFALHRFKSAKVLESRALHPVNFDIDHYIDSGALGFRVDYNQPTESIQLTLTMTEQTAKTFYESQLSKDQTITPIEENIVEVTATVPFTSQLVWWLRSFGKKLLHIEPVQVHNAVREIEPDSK
The series can be described thus: EMSA.

The values below come from PMC12392091.

B1: recA promoter WT (FAM-AR-DDRM) (dsDNA)
DNA 1: TTTCCGGTCTGGGCGACACAATATGACGTGTAATTTTAACC
DNA 2: GGTTAAAATTACACGTCATATTGTGTCGCCCAGACCGGAAA
For the molecule B1, the binding result is recorded as “binds”.
